Assay [1] addresses T1, rat PTK-7 recombinant protein (rat, UniProt A0A8I6ALM9 40-713).
T1 construct: also called rat PTK7 protein
In words: ELISA, plate-coated rat PTK7 recombinant protein. The procedure: (§1) Binding specificity property was tested by ELISA according to a standard protocol. Specifically, 96-well micro-plates were coated with 2 μg/mL human, cynomolgus, mouse, and rat PTK-7 recombinant protein in PBS 100 μL per well, incubated overnight at 4° C. Plates were washed twice by TBS+0.5% Tween20. 200 μL of blocking buffer (2% BSA in PBS) was added to each well and incubated at 37° C. for 2 hours. Plates were washed using the buffer mentioned above. Serially diluted antibodies were added to the ELISA plate with 100 μL per well and incubated for 1 hour at room temperature. Then plates were washed for 3 times. After washing, HRP conjugated anti-human Fc antibody solution (abcam, ab98624, diluted with blocking buffer) was added to the plate with 100 μl per well. The plates were incubated at room temperature for 1 hour and then washed for 3 times. Then TMB solution was added to plates with 100 μl per well, placed at room temperature for 5-15 mins, then the stop solution (2M H₂SO₄) was added with 50 μl per well. Finally, the result was measured by absorbance at A₄₅₀ and A₆₃₀.
(In general: An ELISA detects its analyte on a solid surface through an enzyme-linked reagent.)

The target of assay [2] is T2, cynomolgus PTK-7 recombinant protein (cynomolgus monkey, UniProt A0A2K5VNI5 39-712).
T2 construct: also called cynomolgus monkey PTK7 protein; cyano PTK7
T2 sequence: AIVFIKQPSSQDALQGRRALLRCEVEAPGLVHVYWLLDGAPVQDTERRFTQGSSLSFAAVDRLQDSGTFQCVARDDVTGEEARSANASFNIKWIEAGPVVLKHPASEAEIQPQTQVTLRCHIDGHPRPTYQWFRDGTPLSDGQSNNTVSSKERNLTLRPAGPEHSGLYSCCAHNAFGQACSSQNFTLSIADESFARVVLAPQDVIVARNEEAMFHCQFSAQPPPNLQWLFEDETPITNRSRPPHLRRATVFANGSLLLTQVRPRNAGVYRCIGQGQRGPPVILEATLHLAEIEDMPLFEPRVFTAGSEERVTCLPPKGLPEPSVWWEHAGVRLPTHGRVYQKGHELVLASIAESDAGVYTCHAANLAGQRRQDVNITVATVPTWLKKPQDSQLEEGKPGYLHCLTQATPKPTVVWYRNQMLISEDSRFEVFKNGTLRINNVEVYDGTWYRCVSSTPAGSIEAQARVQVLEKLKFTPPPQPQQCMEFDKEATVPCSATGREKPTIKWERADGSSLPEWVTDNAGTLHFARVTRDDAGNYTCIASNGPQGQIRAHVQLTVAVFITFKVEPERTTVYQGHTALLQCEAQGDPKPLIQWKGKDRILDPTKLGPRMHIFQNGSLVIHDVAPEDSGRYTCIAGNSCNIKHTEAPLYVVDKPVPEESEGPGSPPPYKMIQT
Kind of assay: ELISA, plate-coated cynomolgus PTK7 protein, anti-human Fc-HRP detection. The procedure: as §1

The target in assay [3] is T3, cynomolgus PTK7 extra-cellular domain (ECD) linked to His tag (cynomolgus monkey, UniProt A0A2K5VNI5 39-712).
T3 construct: extracellular domain; also called cPTK7-his; cynomolgus monkey PTK7-his protein; not shown: His tag
T3 sequence: T2 sequence
Kind of assay: BLI (Octet RED), antibody on anti-human IgG Fc tips, PTK7 ECD-His 100 to 1.56 nM in solution, 1:1 global fit. The procedure: (§2) Recombinant proteins consisting of the PTK7 extra-cellular domain (ECD) linked to His tag were purchased from ACRO biosystems. […] Binding assays using varying concentrations from 100 nM down to 1.56 nM of recombinant proteins (human, cynomolgus) in solution were performed using Octet RED (ForteBio). Association time was set at 180 seconds and dissociation time was set at 300 seconds. Binding affinity was calculated using ForteBio Data Acquisition 6.3 software (ForteBio). Affinity was derived by fitting the kinetic data to a 1:1 Langmuir binding model utilizing global fitting algorithms.
For orientation: BLI is a label-free optical method that tracks binding on a fibre tip over time.

The target in assay [4] is T4, human PTK7 extra-cellular domain (ECD) linked to His tag (human, UniProt Q13308 31-704).
T4 construct: extracellular domain; also called hPTK7-his; human PTK7-his protein; not shown: His tag
T4 sequence (looked up): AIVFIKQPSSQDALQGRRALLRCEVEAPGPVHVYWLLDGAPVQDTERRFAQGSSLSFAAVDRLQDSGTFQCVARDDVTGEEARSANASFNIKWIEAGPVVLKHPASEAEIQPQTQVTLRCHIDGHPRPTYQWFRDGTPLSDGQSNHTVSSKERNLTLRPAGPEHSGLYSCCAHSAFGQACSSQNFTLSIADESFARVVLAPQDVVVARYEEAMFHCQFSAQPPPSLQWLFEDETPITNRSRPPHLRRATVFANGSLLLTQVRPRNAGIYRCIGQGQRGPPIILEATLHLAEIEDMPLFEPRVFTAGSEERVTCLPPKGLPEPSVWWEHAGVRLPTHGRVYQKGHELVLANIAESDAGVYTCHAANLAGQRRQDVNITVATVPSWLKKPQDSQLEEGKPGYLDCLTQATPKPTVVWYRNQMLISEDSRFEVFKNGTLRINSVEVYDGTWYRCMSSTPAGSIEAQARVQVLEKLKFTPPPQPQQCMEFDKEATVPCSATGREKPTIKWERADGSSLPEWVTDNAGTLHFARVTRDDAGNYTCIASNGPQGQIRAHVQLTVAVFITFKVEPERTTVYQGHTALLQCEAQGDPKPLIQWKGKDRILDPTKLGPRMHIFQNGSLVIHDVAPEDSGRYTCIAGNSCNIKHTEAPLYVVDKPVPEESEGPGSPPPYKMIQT
The assay is described as above. The procedure:
as §2

B1: humanized antibody 2C8 (antibody, V domains shown)
VH: QIQLVQSGAEVKKPGASVKVSCKASGYTFTTYGMSWVRQAPGQGLEWMGWINTHSGVPTYVDEFKGRVTMTLDTSTSTAYMELSSLRSEDTAVYYCARSPFDYGSRGAWFVYWGQGTTVTVSS
VL: DVVMTQSPDSLAVSLGERATINCRSSQSIVHNSGDTYLEWYQQKPGQPPKLLIYKVSNRFPGVPDRFSGSGSGTDFTLTISSLQAEDLAVYYCFQGSHVPWTFGGGTKVEIK
notes: Only variable regions are tied to 2C8 by name; It was detected with anti-human Fc
A word on the EC50: it is the concentration needed to bring the measured effect to its halfway point. On to B1, for which the binding result in assay [1] is “no binding”. In assay [2], the EC50 came to 2.61 nM.

B2: humanized antibody 2C5 (antibody, V domains shown)
VH: QVQLVQSGAEVKKPGASVKVSCKASGYTFTDYYINWVRQAPGQGLEWMGDINPYSGGPVYNQKFMARVTMTVDKSINTAYMELSRLRSDDTAVYYCARGDYYGSNYNYWGQGTLVTVSS
VL: EIVLTQSPATLSVSPGERATLSCRASQNIGTSIHWYQQKPGQAPRLLIKFASESISGIPARFSGSGSGTEFTLTISSLQSEDIAVYYCQQSNNWPYTFGQGTKLEIK
notes: Only variable regions are tied to 2C5; It was detected with anti-human Fc, so it has a human Fc
Usually Kd stands for the free concentration of one partner at which half of the binding sites on the other are occupied at equilibrium, for simple one-to-one binding. A low value points to higher affinity. One may read the koff as the first-order rate constant of dissociation. Low readings indicate a long-lived complex, high ones a short-lived complex. In general, kon refers to the rate constant with which the complex forms. Turning to B2, in assay [2], the EC50 was 1.67 nM. Further, in assay [3], the affinity, expressed as Kd, was 0.0904 nM; the koff is 2.02e-05 s⁻¹; the kon came to 224000 M⁻¹ s⁻¹. Moreover, in assay [4], the Kd is at most 0.00139 nM, the koff is under 1e-07 s⁻¹ and the kon amounted to 34800 M⁻¹ s⁻¹.

B3: humanized antibody 13C4 (antibody, V domains shown)
VH: QVQLVESGGGLVKPGGSLRLSCAASGFAFSTYDMFWIRQAPGKGLEWVSTISSGGGYTYYPGSVKGRFTISRDNAKNSLYLQMNSLRAEDTAVYYCVRPLLRDSYFYFDVWGQGTMVTVSS
VL: EIVMTQSPATLSVSPGERATLSCRASSSVSSSYLHWYQQKPGQAPRLLIFRTSNLASGIPARFSGSGSGTEYTLTISSLQSEDAAVYYCQQYSGYPLTFGQGTKLEIK
notes: Only variable regions are tied to 13C4; It was detected with anti-human Fc
Take B3: the binding result in assay [1] is on record as “no binding”. In addition, the half-maximal effective concentration (EC50) in assay [2] is 1.14 nM. Moreover, in assay [3], the Kd is under 0.001 nM, the koff was under 1e-07 s⁻¹ and the kon amounted to 54100 M⁻¹ s⁻¹. Moreover, in assay [4], binding was characterised by a dissociation constant (Kd) of 0.798 nM, the koff was 0.000132 s⁻¹ and the association rate constant (kon) stood at 166000 M⁻¹ s⁻¹.

The values above are taken from US20250115680A1 (PROFOUNDBIO US, published 2025).
